Measured values as given in patent US20230265151A1, “GIP/GLP1 CO-AGONIST COMPOUNDS” (priority 2020, published 2023).
Numbering of substitutions follows the chain as printed.

Target: human glucagon receptor (human, UniProt P47871 26-477)
Experiment: cell-based or functional assay

B1: Y-Aib-EGT-αMeF(2F)-TSDK((2-[2-(2-Amino-ethoxy)-ethoxy]-acetyl)2-(γ-Glu)-CO-(CH2)14-CH3)SI-αMeL-LD-Orn-K((2-[2-(2-Amino-ethoxy)-ethoxy]-acetyl)2-(γ-Glu)-CO-(CH2) … (peptide)
peptide: YXEGTXTSDKSIXLDXKAQXEFIXXLIEGGPSSGAPPPS
modifications: Aib2, αMeF(2F)6, αMeL13, Orn16, Aib20, D-Glu24, αMeY25; acylated K10, K17 (groups as in name); C-terminal amide
- cAMP EC50 (1.0% HSA): > 9.95 µM

B2: Y-Aib-EGT-αMeF(2F)-TSD-4Pal-SI-αMeL-LD-Orn-K((2-[2-(2-Amino-ethoxy)-ethoxy]-acetyl)3-(γ-Glu)-CO-(CH2)12-CO2H)AQ-Aib-EFI-(D-Glu)-αMeY-LIEGGK((2-[2-(2-Amino-ethox … (peptide)
peptide: B1 peptide with K10X, P31K
modifications: Aib2, αMeF(2F)6, 4Pal10, αMeL13, Orn16, Aib20, D-Glu24, αMeY25; acylated K17, K31 (groups as in name); C-terminal amide
- cAMP EC50 (1.0% HSA): > 9.95 µM

B3: Y-Aib-EGT-αMeF(2F)-TSD-4Pal-SI-αMeL-LD-Orn-K((2-[2-(2-Amino-ethoxy)-ethoxy]-acetyl)3-(γ-Glu)-CO-(CH2)14-CH3)AQ-Aib-EFI-(D-Glu)-αMeY-LIEGGK((2-[2-(2-Amino-ethoxy … (peptide)
peptide: B1 peptide with K10X, P31K
modifications: Aib2, αMeF(2F)6, 4Pal10, αMeL13, Orn16, Aib20, D-Glu24, αMeY25; acylated K17, K31 (groups as in name); C-terminal amide
- cAMP EC50 (1.0% HSA): > 9.95 µM

B4: Y-Aib-EGT-αMeF(2F)-TSD-4Pal-SI-αMeL-LD-Orn-K((2-[2-(2-Amino-ethoxy)-ethoxy]-acetyl)2-(εK)-CO-(CH2)12-CO2H)AQ-Aib-EFI-(D-Glu)-αMeY-LIEGGK((2-[2-(2-Amino-ethoxy)- … (peptide)
peptide: B1 peptide with K10X, P31K
modifications: Aib2, αMeF(2F)6, 4Pal10, αMeL13, Orn16, Aib20, D-Glu24, αMeY25; acylated K17, K31 (groups as in name); C-terminal amide
- cAMP EC50 (1.0% HSA): > 9.95 µM

B5: Y-Aib-EGT-αMeF(2F)-TSD-4Pal-SI-αMeL-LD-Orn-K((2-[2-(2-Amino-ethoxy)-ethoxy]-acetyl)2-(εK)-(γ-Glu)-CO-(CH2)12-CO2H)AQ-Aib-EFI-(D-Glu)-αMeY-LIEGGK((2-[2-(2-Amino- … (peptide)
peptide: B1 peptide with K10X, P31K
modifications: Aib2, αMeF(2F)6, 4Pal10, αMeL13, Orn16, Aib20, D-Glu24, αMeY25; acylated K17, K31 (groups as in name); C-terminal amide
- cAMP EC50 (1.0% HSA): > 9.95 µM

B6: Y-Aib-EGT-αMeF(2F)-TSD-4Pal-SI-αMeL-LD-Orn-K((2-[2-(2-Amino-ethoxy)-ethoxy]-acetyl)-(εK)-(γ-Glu)-CO-(CH2)12-CO2H)AQ-Aib-EFI-(D-Glu)-αMeY-LIEGGK((2-[2-(2-Amino-e … (peptide)
peptide: B1 peptide with K10X, P31K
modifications: Aib2, αMeF(2F)6, 4Pal10, αMeL13, Orn16, Aib20, D-Glu24, αMeY25; acylated K17, K31 (groups as in name); C-terminal amide
- cAMP EC50 (1.0% HSA): > 9.95 µM

B7: Y-Aib-EGT-αMeF(2F)-TSD-4Pal-SI-αMeL-LD-Orn-K((εK)-(2-[2-(2-Amino-ethoxy)-ethoxy]-acetyl)-(γ-Glu)-CO-(CH2)12-CO2H)AQ-Aib-EFI-(D-Glu)-αMeY-LIEGGK((εK)-(2-[2-(2-Am … (peptide)
peptide: B1 peptide with K10X, P31K
modifications: Aib2, αMeF(2F)6, 4Pal10, αMeL13, Orn16, Aib20, D-Glu24, αMeY25; acylated K17, K31 (groups as in name); C-terminal amide
- cAMP EC50 (1.0% HSA): > 9.95 µM

B8: Y-Aib-EGT-αMeF(2F)-TSD-4Pal-SI-αMeL-LD-Orn-K((εK)-(2-[2-(2-Amino-ethoxy)-ethoxy]-acetyl)2-(γ-Glu)-CO-(CH2)12-CO2H)AQ-Aib-EFI-(D-Glu)-αMeY-LIEGGK((εK)-(2-[2-(2-A … (peptide)
peptide: B1 peptide with K10X, P31K
modifications: Aib2, αMeF(2F)6, 4Pal10, αMeL13, Orn16, Aib20, D-Glu24, αMeY25; acylated K17, K31 (groups as in name); C-terminal amide
- cAMP EC50 (1.0% HSA): > 9.95 µM

B9: Y-Aib-EGT-αMeF(2F)-TSD-4Pal-SI-αMeL-LD-Orn-K((εK)-(γ-Glu)-CO-(CH2)12-CO2H)AQ-Aib-EFI-(D-Glu)-αMeY-LIEGGK((εK)-(γ-Glu)-CO-(CH2)12-CO2H)SSGAPPPS-NH2 (peptide)
peptide: B1 peptide with K10X, P31K
modifications: Aib2, αMeF(2F)6, 4Pal10, αMeL13, Orn16, Aib20, D-Glu24, αMeY25; acylated K17, K31 (groups as in name); C-terminal amide
- cAMP EC50 (1.0% HSA): > 9.95 µM

B10: Y-Aib-EGT-αMeF(2F)-TSD-4Pal-SI-αMeL-LD-Orn-K((εK)-(γ-Glu)-(γ-Glu)-CO-(CH2)12-CO2H)AQ-Aib-EFI-(D-Glu)-αMeY-LIEGGK((εK)-(γ-Glu)-(γ-Glu)-CO-(CH2)12-CO2H)SSGAPPPS-N … (peptide)
peptide: B1 peptide with K10X, P31K
modifications: Aib2, αMeF(2F)6, 4Pal10, αMeL13, Orn16, Aib20, D-Glu24, αMeY25; acylated K17, K31 (groups as in name); C-terminal amide
- cAMP EC50 (1.0% HSA): > 9.95 µM

B11: Y-Aib-EGT-αMeF(2F)-TSD-4Pal-SI-αMeL-LD-Orn-K((εK)-(εK)-(γ-Glu)-CO-(CH2)12-CO2H)AQ-Aib-EFI-(D-Glu)-αMeY-LIEGGK((εK)-(εK)-(γ-Glu)-CO-(CH2)12-CO2H)SSGAPPPS-NH2 (peptide)
peptide: B1 peptide with K10X, P31K
modifications: Aib2, αMeF(2F)6, 4Pal10, αMeL13, Orn16, Aib20, D-Glu24, αMeY25; acylated K17, K31 (groups as in name); C-terminal amide
- cAMP EC50 (1.0% HSA): > 9.95 µM
